Key:
[1] = system: H1299, A549, or 293T cells; test: Cell viability by trypan blue exclusion after PUGNAc treatment; assay type: cell-based, human; details: PUGNAc 100 μM for 9 h
PFK1 [2] = target: T1, PFK1 (Homo sapiens, UniProt P17858); test: PFK1 oligomerization by native gel electrophoresis; details: 50 nM F-2,6-BP, 50° C. for 30 min (FIG. 21)
T1 construct: made in house
T1 sequence (P17858 1-780): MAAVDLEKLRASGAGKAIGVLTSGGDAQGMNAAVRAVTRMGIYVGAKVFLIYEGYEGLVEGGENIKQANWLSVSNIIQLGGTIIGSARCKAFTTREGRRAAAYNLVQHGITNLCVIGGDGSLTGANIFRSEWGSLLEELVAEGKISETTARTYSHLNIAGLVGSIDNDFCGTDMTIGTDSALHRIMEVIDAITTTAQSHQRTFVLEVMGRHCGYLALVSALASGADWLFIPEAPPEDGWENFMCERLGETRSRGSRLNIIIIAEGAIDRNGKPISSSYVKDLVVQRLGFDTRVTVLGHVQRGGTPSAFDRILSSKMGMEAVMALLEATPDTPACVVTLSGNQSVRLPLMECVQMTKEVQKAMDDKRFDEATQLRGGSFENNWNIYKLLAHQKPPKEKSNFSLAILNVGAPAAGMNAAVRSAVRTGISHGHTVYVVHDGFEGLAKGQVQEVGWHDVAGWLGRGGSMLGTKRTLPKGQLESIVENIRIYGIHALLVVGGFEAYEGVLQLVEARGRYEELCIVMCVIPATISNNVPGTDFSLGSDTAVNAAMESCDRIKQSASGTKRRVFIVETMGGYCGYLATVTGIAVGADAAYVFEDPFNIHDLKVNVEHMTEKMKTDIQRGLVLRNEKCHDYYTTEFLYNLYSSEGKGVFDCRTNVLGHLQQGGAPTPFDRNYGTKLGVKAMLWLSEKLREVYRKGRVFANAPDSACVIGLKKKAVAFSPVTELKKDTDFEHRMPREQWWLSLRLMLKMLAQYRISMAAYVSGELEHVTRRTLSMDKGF
Method: Flag-tagged PFK1 (L isoform) was transiently expressed in 293T cells with or without co-expression of HA-tagged OGT. After 36 h, Flag-tagged PFK1 was isolated from the lysate using Flag M2 immunoaffinity resin and eluted with a 3 Å˜Flag peptide as described above. The eluent was concentrated using Amicon Ultra Centrifugal Filters (10-kD molecular weight cutoff). Similarly, 293T cells expressing Flag-tagged PFK1 were treated with PUGNAc (100 μM, 12 h) or cultured under hypoxic conditions (0.5% O2, 5% CO2, and 94.5% N2) at 37° C. for 24 h, before protein isolation. As a control, heat treatment of PFK1 in the presence or absence of 50 nM F-2,6-BP was performed at 50° C. for 30 min. The proteins were then subjected to native gel electrophoresis (Bio-Rad) and visualized by Coomassie blue staining as described above.

PFK1 [3] = target: T2, PFK1 (Homo sapiens, UniProt P17858); test: PFK1 enzymatic assay; assay type: biochemical
T2 construct: made in house
T2 sequence (P17858 2-780): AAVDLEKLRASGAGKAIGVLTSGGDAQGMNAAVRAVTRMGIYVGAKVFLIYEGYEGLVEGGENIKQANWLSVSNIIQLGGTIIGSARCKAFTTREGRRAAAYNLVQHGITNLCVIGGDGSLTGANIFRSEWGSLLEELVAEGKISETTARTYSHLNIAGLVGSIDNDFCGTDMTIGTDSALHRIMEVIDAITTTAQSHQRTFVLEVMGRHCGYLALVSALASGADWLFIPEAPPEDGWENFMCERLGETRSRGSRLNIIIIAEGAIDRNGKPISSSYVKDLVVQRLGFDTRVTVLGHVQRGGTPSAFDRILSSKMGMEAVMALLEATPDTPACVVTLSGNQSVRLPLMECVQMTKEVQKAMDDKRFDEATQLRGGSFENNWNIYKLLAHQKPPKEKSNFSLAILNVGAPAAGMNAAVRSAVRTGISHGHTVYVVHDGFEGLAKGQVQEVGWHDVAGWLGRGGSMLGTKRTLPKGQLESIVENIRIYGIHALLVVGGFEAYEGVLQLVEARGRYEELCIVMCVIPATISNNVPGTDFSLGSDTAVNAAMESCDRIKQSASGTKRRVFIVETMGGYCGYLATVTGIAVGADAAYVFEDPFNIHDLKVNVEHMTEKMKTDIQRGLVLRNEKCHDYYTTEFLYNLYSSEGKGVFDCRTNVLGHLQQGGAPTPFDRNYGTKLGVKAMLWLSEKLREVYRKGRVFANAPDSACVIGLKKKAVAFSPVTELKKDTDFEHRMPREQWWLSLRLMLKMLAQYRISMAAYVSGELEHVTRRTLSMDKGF
Method: In order to measure PFK1 activity, a reaction was performed using either cell lysate (20 μg) or recombinant purified PFK1 (0.1 μg) in 1 ml of reaction buffer containing 50 mM Tris-HCl pH 7.5, 100 mM KCl, 5 mM MgCl2, 1 mM ATP, 0.2 mM NADH, 5 mM Na2HPO4, 0.1 mM AMP, 1 mM NH4Cl, 5 mM fructose-6-phosphate, 5 U of triose phosphate isomerase (Sigma-Aldrich), 1 U of aldolase (Sigma-Aldrich) and 1 U of α-glycerophosphate dehydrogenase (Sigma-Aldrich). Absorbance was recorded at 340 nm at room temperature every 15 s for 10 min using a Uvikon UV-Vis spectrophotometer (Research Instruments International). One unit of PFK1 activity is defined as the amount of enzyme that catalyzes the conversion of 1 μmol of fructose-6-phosphate to fructose-1,6-bisphosphate per min.
In order to determine the activation of PFK1 by F-2,6-BP (Sigma-Aldrich) over the indicated concentrations, reactions were performed in similar buffer conditions as described above except that an inhibitory concentration of ATP (3 mM) was used. […]
293T cells were transiently transfected with Flag-tagged PFKL, Myc-tagged PFKP, or Myc-tagged PFKM. […] Glycosylation levels were analyzed by chemoenzymatic labeling with a 5-kD mass tag, and PFK1 activities were measured on the purified proteins as described above.

PFK1 [4] = test: Analysis of PFK1 glycosylation (chemoenzymatic labeling, immunoblot); assay type: cell-based, human; details: 293T cells (FIG. 14)
Method: To carry out chemoenzymatic labeling and biotinylation of proteins in cell lysates, cell lines and tissues were first lysed in lysis buffer (1% SDS, 50 mM Tris-HCl, pH 7.5, 100 mM NaCl, 10 μM PUGNAc, and Complete™ protease inhibitors (Roche)). The cell lysate (400 μg) was then labeled according to the Click-iT O-GlcNAc Enzymatic Labeling System protocol (Invitrogen) and conjugated with an alkyne-biotin compound as per the Click-iT Protein Analysis Detection Kit protocol (Invitrogen). Control experiments were carried out in parallel in the absence of the labeling enzyme GalT. […] To quantify the percentage of glycosylation, the intensity of the band eluted from resin (the glycosylated protein fraction) and the band from the input (the total protein) were measured. […] The percentage of glycosylation on Flag-tagged PFK1 was determined by using an antibody to Flag. To quantify the percentage of glycosylation, the intensity of the PEG-shifted band (the glycosylated protein fraction) and the unshifted band (the non-glycosylated protein fraction) were measured and the ratio of the intensity of the glycosylated protein fraction over the intensity of the total protein (glycosylated protein fraction plus non-glycosylated protein fraction) was taken as the glycosylation stoichiometry.

`CC(=O)N[C@H]1/C(=N/OC(=O)Nc2ccccc2)O[C@H](CO)[C@@H](O)[C@@H]1O` [PUGNAc, O-(2-acetamido-2-deoxy-D-glucopyranosylidene) amino Nphenylcarbamate] was tested, and the “effect on cell viability” value [1] was “did not affect cell viability”.

For `O=P(O)(O)OC[C@H]1O[C@@](CO)(OP(=O)(O)O)[C@@H](O)[C@@H]1O` [F-2,6-BP, fructose-2,6-bisphosphate], the “rescue of reduction of PFK1 oligomerization state by heat denaturation” value (PFK1 [2]) was “partial rescue”.

B1: S529A PFK1: modified PFK-1 polypeptide with serine to alanine substitution at position 529 (SEQ ID NO: 2) (protein)
chain: MAAVDLEKLRASGAGKAIGVLTSGGDAQGMNAAVRAVTRMGIYVGAKVFLIYEGYEGLVEGGENIKQANWLSVSNIIQLGGTIIGSARCKAFTTREGRRAAAYNLVQHGITNLCVIGGDGSLTGANIFRSEWGSLLEELVAEGKISETTARTYSHLNIAGLVGSIDNDFCGTDMTIGTDSALHRIMEVIDAITTTAQSHQRTFVLEVMGRHCGYLALVSALASGADWLFIPEAPPEDGWENFMCERLGETRSRGSRLNIIIIAEGAIDRNGKPISSSYVKDLVVQRLGFDTRVTVLGHVQRGGTPSAFDRILSSKMGMEAVMALLEATPDTPACVVTLSGNQSVRLPLMECVQMTKEVQKAMDDKRFDEATQLRGGSFENNWNIYKLLAHQKPPKEKSNFSLAILNVGAPAAGMNAAVRSAVRTGISHGHTVYVVHDGFEGLAKGQVQEVGWHDVAGWLGRGGSMLGTKRTLPKGQLESIVENIRIYGIHALLVVGGFEAYEGVLQLVEARGRYEELCIVMCVIPATIANNVPGTDFSLGSDTAVNAAMESCDRIKQSASGTKRRVFIVETMGGYCGYLATVTGIAVGADAAYVFEDPFNIHDLKVNVEHMTEKMKTDIQRGLVLRNEKCHDYYTTEFLYNLYSSEGKGVFDCRTNVLGHLQQGGAPTPFDRNYGTKLGVKAMLWLSEKLREVYRKGRVFANAPDSACVIGLKKKAVAFSPVTELKKDTDFEHRMPREQWWLSLRLMLKMLAQYRISMAAYVSGELEHVTRRTLSMDKGF
In the case of B1, the “PFK1 activity versus F-2,6-BP concentration” value (PFK1 [3]; 3 mM ATP (FIG. 19)) is reported as “impaired at lower F-2,6-BP concentrations”, the “PFK1 activity under hypoxia” value (PFK1 [3]; expressed in 293T cells, hypoxic vs normoxic (FIG. 2A)) is reported as “not significantly changed” and the “glycosylation of PFK1 mutant” value (PFK1 [4]) is reported as “abolished”.

— US9645151B2, “Targeting phosphofructokinase and its glycosylation form for cancer” (California Institute of Technology, priority 2012, dated 2017)
